Earlier results, collected in publication PMC4652184.

Target: Slit2 (Homo sapiens) (UniProt O94813)
Sequence (O94813 31-1529): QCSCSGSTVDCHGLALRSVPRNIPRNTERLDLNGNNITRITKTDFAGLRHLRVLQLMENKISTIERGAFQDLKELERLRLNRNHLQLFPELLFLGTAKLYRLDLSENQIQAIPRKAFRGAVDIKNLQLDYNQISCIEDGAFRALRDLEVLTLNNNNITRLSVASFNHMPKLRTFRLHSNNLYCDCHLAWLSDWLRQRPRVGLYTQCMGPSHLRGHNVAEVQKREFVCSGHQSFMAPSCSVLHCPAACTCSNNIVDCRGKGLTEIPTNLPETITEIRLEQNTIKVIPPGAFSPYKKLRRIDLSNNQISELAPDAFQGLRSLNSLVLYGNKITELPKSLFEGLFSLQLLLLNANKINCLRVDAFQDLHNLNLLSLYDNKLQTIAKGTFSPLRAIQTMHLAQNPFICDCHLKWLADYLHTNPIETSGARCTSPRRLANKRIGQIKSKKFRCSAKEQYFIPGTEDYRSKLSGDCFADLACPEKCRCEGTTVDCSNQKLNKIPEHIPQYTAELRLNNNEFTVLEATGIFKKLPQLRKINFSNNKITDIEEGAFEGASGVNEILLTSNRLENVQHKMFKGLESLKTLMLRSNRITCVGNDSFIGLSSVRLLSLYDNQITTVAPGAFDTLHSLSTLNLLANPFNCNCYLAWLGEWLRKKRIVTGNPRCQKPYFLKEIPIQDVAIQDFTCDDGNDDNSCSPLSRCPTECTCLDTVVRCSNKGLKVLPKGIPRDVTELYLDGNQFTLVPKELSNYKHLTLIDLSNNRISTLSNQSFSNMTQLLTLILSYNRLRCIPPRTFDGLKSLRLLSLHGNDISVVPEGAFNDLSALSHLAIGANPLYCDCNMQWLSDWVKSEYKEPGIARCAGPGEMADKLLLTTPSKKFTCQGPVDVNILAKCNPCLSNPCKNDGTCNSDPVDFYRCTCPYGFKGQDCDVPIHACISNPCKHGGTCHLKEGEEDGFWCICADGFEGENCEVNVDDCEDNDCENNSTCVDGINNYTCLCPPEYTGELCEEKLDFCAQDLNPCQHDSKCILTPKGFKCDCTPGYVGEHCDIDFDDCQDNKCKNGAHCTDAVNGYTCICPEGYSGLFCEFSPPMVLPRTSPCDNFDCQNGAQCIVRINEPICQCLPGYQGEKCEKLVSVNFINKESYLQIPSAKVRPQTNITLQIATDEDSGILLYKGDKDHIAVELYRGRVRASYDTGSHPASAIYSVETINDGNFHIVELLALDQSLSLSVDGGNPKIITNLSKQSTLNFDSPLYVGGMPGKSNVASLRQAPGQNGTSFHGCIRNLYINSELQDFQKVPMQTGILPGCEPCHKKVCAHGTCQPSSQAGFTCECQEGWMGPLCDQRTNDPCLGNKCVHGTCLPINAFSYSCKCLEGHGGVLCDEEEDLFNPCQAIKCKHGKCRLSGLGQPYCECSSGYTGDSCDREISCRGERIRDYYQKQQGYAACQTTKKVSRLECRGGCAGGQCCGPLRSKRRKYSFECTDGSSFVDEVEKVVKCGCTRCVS

Robo1, sequence (Q9Y6N7 26-897): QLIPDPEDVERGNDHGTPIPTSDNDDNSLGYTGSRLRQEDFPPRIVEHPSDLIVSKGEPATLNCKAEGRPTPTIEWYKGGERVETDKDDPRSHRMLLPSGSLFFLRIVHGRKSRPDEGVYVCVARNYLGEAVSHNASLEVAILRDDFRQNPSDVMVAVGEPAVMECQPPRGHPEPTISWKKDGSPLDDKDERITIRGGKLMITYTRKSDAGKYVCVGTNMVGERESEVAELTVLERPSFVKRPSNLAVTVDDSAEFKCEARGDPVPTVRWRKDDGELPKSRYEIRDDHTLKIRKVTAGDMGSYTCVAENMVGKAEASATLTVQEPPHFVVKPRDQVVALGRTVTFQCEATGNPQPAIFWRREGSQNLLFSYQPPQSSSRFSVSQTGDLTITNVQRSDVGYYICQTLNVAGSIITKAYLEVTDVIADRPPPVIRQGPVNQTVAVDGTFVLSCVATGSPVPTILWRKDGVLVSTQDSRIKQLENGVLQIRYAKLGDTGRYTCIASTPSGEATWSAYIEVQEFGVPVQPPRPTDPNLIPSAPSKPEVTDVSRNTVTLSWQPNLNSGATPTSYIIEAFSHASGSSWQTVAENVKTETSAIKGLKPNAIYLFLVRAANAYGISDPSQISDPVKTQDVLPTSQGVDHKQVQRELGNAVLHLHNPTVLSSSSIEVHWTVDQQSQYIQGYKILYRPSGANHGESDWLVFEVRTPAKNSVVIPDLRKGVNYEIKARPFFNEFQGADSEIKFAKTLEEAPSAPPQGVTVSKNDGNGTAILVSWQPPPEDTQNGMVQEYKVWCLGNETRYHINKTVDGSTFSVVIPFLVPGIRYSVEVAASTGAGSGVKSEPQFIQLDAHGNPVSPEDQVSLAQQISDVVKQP

Kd: 4.5 nM
Substance: Robo1 (from UniProt Q9Y6N7)
